# “And” between values parts separate entries of the source, which are not always exact repeats. Equal values may be shown once.
# T1: mature human progastrin (human, UniProt P01350 22-101)
# T1 construct: In the spheroid assays the progastrin is made by the human liver cancer cells themselves; also called hPG; PG
# T1 sequence: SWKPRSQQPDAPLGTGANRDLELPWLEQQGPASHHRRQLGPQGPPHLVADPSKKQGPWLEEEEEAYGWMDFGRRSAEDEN
# B1: murine anti-hPG MAb8 (antibody, V domains shown)
# VH: EVQLVESGGGLVKPGGSLKLSCAASGFTFTTYAMSWVRQTPEKRLEWVATISSGGTYTYYPDSVKGRFTISRDNAKNALYLQMSSLRSEDTAMYYCATQGNYSLDFWGQGTSLTVSS
# VL: DIVMTQAASSNPVTLGTSASISCRSSKSLRHTKGITFLYWYLQKPGQSPQLLIYQMSNLASGVPDRFSSSGSGTDFTLRISRVEAEDLGVYYCAQNLELPLTFGAGTKLELK
# notes: Murine C-terminal anti-hPG monoclonal antibody, immunogen C1; also called hybridoma 1C10D3B9
# B2: murine anti-hPG MAb16 (antibody, V domains shown)
# VH: QVQLQQSGAELVKPGASVKLSCKASGYTFTSYYMYWVKQRPGQGLEWIGEINPSNGGTNFNEKFKSKATLTVDKSSSTAYMQLSSLTSEDSAVYYCTRGGYYPFDYWGQGTTLTVSS
# VL: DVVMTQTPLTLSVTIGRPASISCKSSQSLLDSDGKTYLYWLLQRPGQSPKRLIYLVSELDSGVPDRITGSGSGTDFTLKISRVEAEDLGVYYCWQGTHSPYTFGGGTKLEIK
# notes: Murine N-terminal anti-hPG monoclonal antibody, immunogen N2; also called hybridoma 1E9D9B6
# B3: murine anti-hPG MAb4 (antibody, V domains shown)
# VH: QVQLQQSGAELMKPGASVKISCKATGYTFSSSWIEWLKQRPGHGLEWIGEFLPGSGSTDYNEKFKGKATFTADTSSDTAYMLLSSLTSEDSAVYYCATDGNYDWFAYWGQGTLVTVSA
# VL: DLVMTQTPLSLPVSLGDQASISCRSSQSLVHSSGVTYLHWYLQKPGQSPKLLIYKVSNRFSGVPDRFSGSGSGTDFTLKISRVEAEDLGVYFCSQSTHVPPTFGSGTKLEIK
# notes: Murine N-terminal anti-hPG monoclonal antibody, immunogen N2; also called hybridoma 20D2C3G2
# B4: murine anti-hPG MAb19 (antibody, V domains shown)
# VH: DVQLQESGPGLVKPSQSLSLTCTVTGYSITSDYAWNWIRQFPGNKLEWMGYISFSGYTSYNPSLKSRISVTRDTSRNQFFLQLTSVTTEDTATYYCAREVNYGDSYHFDYWGQGTIVTVSS
# VL: QLALTQSSSASFSLGASAKLTCTLSSQHRTYTIEWYQQQSLKPPKYVMEVKKDGSHSTGHGIPDRFSGSSSGADRYLSISNIQPEDEAIYICGVGDAIKGQSVFVFGGGTKVTVL
# notes: Murine N-terminal anti-hPG monoclonal antibody, immunogen N2; also called hybridoma 1B3B4F11
# B5: murine anti-hPG MAb13 (antibody, V domains shown)
# VH: EVQLVESGGGLVQPGGSLKLSCAASGFIFSSYGMSWVRQSPDRRLELVASINTFGDRTYYPDSVKGRFTISRDNAKNTLYLQMTSLKSEDTAIYYCARGTGTYWGQGTTLTVSS
# VL: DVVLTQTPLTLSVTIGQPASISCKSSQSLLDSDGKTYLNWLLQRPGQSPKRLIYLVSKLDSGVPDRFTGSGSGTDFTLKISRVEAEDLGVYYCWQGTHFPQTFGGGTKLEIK
# notes: Murine C-terminal anti-hPG monoclonal antibody, immunogen C1; also called hybridoma 2C6C3C7
# B6: murine anti-hPG MAb3 (antibody, V domains shown)
# VH: EVQLQQSGTVLARPGASVKMSCKASGYIFTSYWVHWVKQRPGQGLEWIGGFYPGNSDSRYNQKFKGKATLTAVTSASTAYMDLSSLTNEDSAVYFCTRRDSPQYWGQGTTLTVSS
# VL: DVLMTQTPLSLPVSLGDQASISCRSSQSIVHSNGNTYLEWYLQKPGQSPKLLIYKVSNRFSGVPDRFSGSGSGTDFTLKISRLEAEDLGVYYCFQGSHVPFTFGGGTKLEIK
# notes: Murine N-terminal anti-hPG monoclonal antibody, immunogen N2; also called hybridoma 6B5B11C10
# Biological target: T1, mature human progastrin
# Experiment: measured KD; method not named at the table (Example 4 describes Proteon SPR, antibody captured by anti-mouse IgG, hPG injected)
row,Binder,Kd
1,B1,0.1 nM and 0.108 nM
2,B2,0.2 nM and 0.278 nM
3,B3,3.5 nM
4,B4,0.7 nM and 0.779 nM
5,B5,0.6 nM and 0.612 nM
6,B6,6.4 nM

# Source: patent US20120020961A1 (INSTITUT NATIONAL DE LA SANTE ET DE LA RECHERCHE MEDICALE …, published 2012)
